Reference: a protein production outcome set (Wang et al. 2014)

test: label from the status in PepcDB records

| Sequence | protein production |
| --- | --- |
| MGMLGLDLLKEVPGLLEEIKALPLRLDEERFRFWLQQDYPFVEALYRYQVGLLLEAPQAHRAPLVQALMATVEELDWLLLQGASPSAPVHPVRAGYIALLEEMGRLPYAYRVVFFYFLNGLFLEAWAHHVPEEGPWAELSQHWFAPEFQAVLYDLEVLARGLWEDLDPEVVRTYLRRILEAEKATWSLLL | not failed |
| MGNFHATTIFAVHHNGECAMAGDGQVTMGNAVVMKHTARKVRKLFQGKVLAGFAGSVADAFTLFEMFEGKLEEYNGNLQRAAVEMAKQWRGDKMLRQLEAMLIVMDKTTMLLVSGTGEVIEPDDGILAIGSGGNYALSAGRALKQYASEHLTAKQIAKASLEIAGDICVYTNHNIIVEEL | not failed |
| MGNFSLFSSFNPEGQHDDVANRWRSPTPMRYIIPNIITILAICAGMSSIRLAFEHRYEAAILMVLLAAILDGADGRIARLMDGSSSFGAQMDSLADVINFGVAPSLIVYSFVLNQAHQVGWIAGLVYCVACCLRLARFNVMLDNTDIPKWQGNYFVGVPAPAGALLLLLPMYLGALGLVPSWSWALFFSLYTVIIAFLLVSRLPVWNGKTINQNLRRDIVVPCMLGIVIYVGFLATYTWHTLLITAVSYMIFLPCSFVAYNKRAALEEKKANIKTLSSS | failed |
| MGNFTFEEMNLMCIYNTGSRTGLIDSLREMRGELAPEETELRELTDSALGNLQAMSDAEFAELELYPDFDQ | failed |
| MGNNKNLHGHLFALTANVMWGLMSPIGKSALQEFSAISVTTFRMVGAAAAFWILSIFCKQEHVDHRDMLKIFFASLFALVFNQGIFIFGLSMTSPIDASIVTTTLPIVTMIVAAIYLKEPITNKKVLGIFVGAMGALILIMSSQAASSGNGSLIGDLLCLVAQISFSIYLTVFKGLSQRYSAVTINKWMFIYASMCYIPFSYQDISVIQWTSIPMVAILQVLYVVLGGSFLAYLCIMTAQKLLRPTVVSMYNYMQPIVATIAAILMGIGSFGWEKGIAITLVFLGVYIVTQSKSKADFEKAGKEL | failed |
| MGPINLLWLQAAGCGGCTMAILEQGRAGWFAELASFDINLLWHPSVSEATADDVIDLLAAVSAARTPLSVLVVEGAVLRGPNGSGRFNMLGGTGRSMASWISELAPRADYVVAVGSCSAYGGVPAAGHNPTDASGLQFLGTEPGGVLGAAFRSKAGLPVINIAGCAPHPGWIAETLAALALGEFSAAALDSFARPKFFAEHLAHHGCARNEFYEFKASAEAMSQRGCLMEHLGCKATQAVGDCNQRSWNGGGSCTQAGYPCIACTSPGFEAAHNYMTTAKVAGIPVGLPLDMPKAWFVALAALSKSATPKRVRANATADHVVVPPTPSGHRRK | failed |
| MGPPERPSLGWTPKEADMQSGPQPDEWSSGWKPGDGGAAPLPLSPALSFLLLFPLASALQPTPLPFPELRLVGGPSRCRGRLEVMHSGSWGSVCDDDWDVVDANVVCRQLGCGLALPVPRPLTFGQGRGPIFLDNVECRGQEASLSECGSRGWGVHNCFHYEDVAVLCDEFLHTQPPARKVLTSIAPPTALQNGRGEGSVRLAGGASPCQGRVEILHGGLWGTVCDDDWGLPDAAVVCRQLGCGAALAATTNAFFGYGTGHILLDNVHCEGGEPRLAACQSLGWGVHNCGHHEDAGVLCAATGVGALPSRDTIRFTTAAWASGKKSGRLRLVGGPSPCRGRVEVLYAGGWGTVCDDDWDFADARVACREAGCGPALGATGLGHFGYGRGPVLLDNVGCTGTEARLSDCFHLGWGQHNCGHHEDAGALCAGEAVESDKEAAQAEQAGLRAHKRGSVHARTNNMGPEELGLQVQQDGSETTRMPSPRPRDGHLRLASGTHRCEGRVELFLGQQWGTVCDDAWDLRAAIVLCRQLGCGQALAALGEAHFGPGRGPILLDNVKCRGDESTLLLCSHIRWDVHNCDHSEDASVLCQPL | failed |
| MGPSILKMLTHAKSHKEALMAFSRREFLKSAAAASAASAVGMSVPSQLLAQAQEGEKGWRWDKSVCRFCGTGCGIMVATKNDQIVAVKGDPAAPVNRGLNCIKGYFNAKIMYGADRLTDPLLRVNEKGEFDKQGKFKPVSWKKAFDVMEAQFKRAYNELGPTGIGVFGSGQYTIQEGYMAAKLIKGGFRSNNLDPNARHCMASAVAAFMETFGIDEPAGCYDDIELTDTIITWGANMAEMHPILWARVTDKKLSNPDKVKVINLSTYTNRTSDLADIEIIFTPQTDLAIWNYIAREIVYNHPESIDMEFVKNHCIFTTGFTDIGYGMRTDIKHAKYDPKELDIAAKERSKVLSEAEGVTLRYLGMKAGDVMEMKHNATAGNHWEITFEDFKKALEPYTLDFVAKLAKGNSEESLESFKEKLQKLANLYIEKERKVVSFWTMGMNQHTRGTWVNEQSYMVHFLLGKQAKPGSGAFSLTGQPSACGTAREVGTFSHRLPADMVVANPKHRAVSEKIWKLPEGTLNPKMGAHYMNIMRDLEDGKIKFAWIQVNNPWQNTANANHWIKAAREMDNFIVCSDAYPGISAKVADLILPTAMIYEKWGAYGNAERRTQHWRQQVVPVGNAMPDVWQMAEFSKRFKLKEVWGAKKIDDKLTLPDVLEKAKAMGYSPEDTLFEVLFANSEAKSFKAKDPIGEGFENTEVFGDRRNVAGSDGEVFKGYGFFIHKYLWEEYRRFGNGHGHDLADFDTYHKVRGLKWPVVDGKETQWRFNAKYDPYARKAGSGEFAFYGDAMKELPRGDLLSPKTEEKFKLTNKAKIFFRPYMDPPEMPSSEYPLWLCTGRVLEHWHSGTMTMRVPELYRAVPEALCYMHPEDAKKLGVKQNEAVWVESRRGKVKARVDTRGRNRTPLGLVYVPWFDEKVYINKVCLDATCPISKQTDFKKCAVKVYKA | failed |
| MGQFSLDSISSEISERKSFIGRINDEKLSSFDDVVKQRETKSWRAWRRSKRRRFTRKRHGLLASATAEGSESTVHARLNEEDLTAEIVFEECHVSGGELNDVVRLENEMLDRFYGAGFWRSPSQKDTSSGSL | failed |
| MGQLPPRARAFFAAQRPLRVLMPGCGSAADLPPLLAMGHDVLAVDFSEAAIELAARQWPEAAGRLLLADFFQLQMPAFDCLFERAFLCALPVGMRSQYAERVAALIAPGGALAGVFFVADTERGPPFGMQAEALRELLSPWFELEEDLALDESVAVFRNRERWMVWRRRGLEHHHHHH | failed |
| MGRDASSYFHLVFFLALTLLAGCSTTGSAPETREAGAGPEELMAAVRANEDRAVLELLSMGVRPDAQARAEQTPLMVAATNGNRRIVRLLLAAGAEVNARSADGNTAVIQAAENGHLAVVRALLAAGANVNVSQGGESLLMKVVASGDLLTAEMLLAAGADVHYRRADGTTALDLARASNNQDLEMLLVQAGAAR | failed |
| MGREIFNRRLPDNYNDFSHSMDNAANGHYFLRVASSNYKRPDGKNVRTVRDVIAEVDQNGVVVDEWRLFDILDPYRDVIMKTLDQGAVCLNIDASQSGHTLSEEDLAALDSSDKFGDIVGSGAGRNWAHVNSVDYDSEDDSIIISSRHQSAIIKIGRDKKVKWILGTPAGWKAPFNAAILTPVDSKGQKIACQDSGCEGDFDWTWTQHTAFKIDSKSKGDILYLSAFDNGDGRGLEQPAMQSMKYSRSVIYKIDQKNKTVQQIWQYGKERGNEWFSPVTSITEYQTDKNSVFVYSATAGGAFDLSVGAFTSLPNPYLEEFKWGEKEPAVEMQIHGARGYQAMPFSLTKALTELEHHHHHH | failed |
| MGRIIGIDLGTTTSEIAYVKDGKPCIIRNIEEGDEHAIPSVVSIEGDEIKVGKKAKNQILLKPELTVAEVKRVMGTENIIQIQGKEYRPEEISALILKKLKEVAEYFLGEEVEEAVITVPANFNDIQRKATKNAGEIAGFKVERIINEPTAAAMAYGVDNLDKNGNILVYDFGGGTFDVTILEMFNGVLDVKVSRGNNYLGGKDIDNKLIDHVVNEFNKSTGVKLDTSDSRILARLKEGVEEAKKTLSTSKMAEIVLPYISADKDNNPINLEMVLTREEFEFNVKEIIDSTEDIVNEALEDANITDNEIDTVLLVGGSSRIPYVRNMLEKRFKGKIARGVNPDEAVALGASVQAAIKNDIPVGDSGTIIVTDTCNYTLGVALKGGIFDPIIDRDSKLPANVTKRYCTVMDNQTEVLVSVYEGESRYVSDNTLIDEFILSGIPKADTGKEKIDITFTYDLNGILNVSAEILSTGDEISKIMSTKGLSKEEIQDLKEVVSSNENNNELVPWKSANLFKLVEPNFRLAERKIPMLPSADREKLQEIMSDMKDAIVDNDKMALMKLDEELTDFLFDFVN | failed |
| MGRLHCTEDPVPEAVGGDMQQLNQLGAQQFSALTEVLFHFLTEQKEVERFLAQLSEFATTNQISLGSLRSIVKSLLLVPNGALKKSLTAKQVQADFITLGLSEEKATYFSEKWKQNTPTLARWAIGQTLMINQLIDMEWKFGVTSGSSELEKVGSIFLQLKLVVKKGNQTKNVYIELTLPQFYSFLHEMERVRTSMECFC | failed |
